Measurements: article PMC5558965, “Cysteine-rich protein 2 accelerates actin filament cluster formation” (PLoS ONE, 2017)

Biological target: Actin protein (from Bovine skeletal muscle), polymerised to F-actin (bovine, UniProt P68138 1-377)
Assay: cell-based or functional assay

B1: Cysteine-rich protein 2 (CRP2), recombinant mouse, full length, with (His)6 tag at the C-terminus (natural protein)
chain: MPVWGGGNKCGACGRTVYHAEEVQCDGRSFHRCCFLCMVCRKNLDSTTVAIHDEEIYCKSCYGKKYGPKGYGYGQGAGTLNMDRGERLGIKPESAQPHRPTTNPNTSKFAQKYGGAEKCSRCGDSVYAAEKIIGAGKPWHKNCFRCAKCGKSLESTTLTEKEGEIYCKGCYAKNFGPKGFGYGQGAGALVHAQ
**Q.** B1 was tested. Which “SAXS decreasing ratio d (0.01 < Q < 0.016) of F-actin; F-actin:CRP2 ratio 1:0 to 1:4.6 (d 1.4 to 3.4)” value did it give?
**A.** 3.4
